Starred links: 1 amine or outer side, 2 acyl side, 3 side chain; linkers in the order of their positions; H or OH if unused. Positions of bridges follow the written chain, without caps; N, C: chain ends. Non-standard residues stand in square brackets, D forms with d. Residues, ends and D or L forms follow the SMILES beside them. Groups on a side chain read outwards from the residue. Triazole bridges read from a SMILES are 1,4-linked. *: point of attachment. DOTA = O=C(O)CN1CCN(CC(=O)O)CCN(CC(=O)*)CCN(CC(=O)O)CC1; Pteroyl = Nc1nc2ncc(CNc3ccc(C(=O)*)cc3)nc2c(=O)[nH]1; Biotin = O=C1N[C@H]2[C@H](CS[C@H]2CCCCC(=O)*)N1; Butanoyl(4-(4-MePh)) = Cc1ccc(CCCC(=O)*)cc1; Lys(N3) = [N-]=[N+]=NCCCC[C@H](N)C(=O)O; γGlu = O=C(O)[C@H](CCC(=O)[*:2])N[*:1]; AEEEA = NCCOCCOCCOCC(=O)O; Pra = C#CC[C@H](N)C(=O)O; X1 = NOCC(=O)*
Key:
[1] = Maximum tolerated dose (MTD) tolerability study
Description: In order to establish a maximum tolerated dose (MTD), a tolerability study was undertaken testing increasing amounts of the 177-Lu heterobiligand 7327 (folate-hshta-Gly-Phe-Lys(DOTA)). Animals were monitored for signs of toxicity and weighed twice weekly. […] The second and third doses were administered 21 days following the previous dose.
Efforts were undertaken to evaluate 177-Lu 6305 (folate-hshta-Lys(MPBA)-Gly-Phe-Lys(DOTA)), a compound with a brush border cleavable linker in addition to an albumin binder. […] Two separate MTD experiments were undertaken. […] A second experiment interrogated lower doses.
In order to establish a MTD, dose range finding studies were undertaken testing increasing amounts of Indi ^177Lu-7327 in healthy, non-tumor bearing female NSG mice using IV administration (FIGS. 34 and 35). Mouse body weight and behavior were monitored. […] The second and third doses were administered 21 days following the previous dose.

OVCAR3 xenograft [2] = assay: 177Lu FOLR1 radioligand therapy of OVCAR3 xenografts; assay type: in vivo, mouse; details: single dose
[3] = Gamma counting of tissue radioactivity; assay type: in vivo, mouse; details: for kidney radioactivity / liver radioactivity / tumor radioactivity: Day 28 post-injection
From the text: 7 days after Lu177-#6305 injection, the 29.6 MBq group lost 20% body weight. These mice were sacrificed. Tissues and plasma were collected for evaluation of radioactivity by gamma counting. The toxicity may have resulted from its accumulation in the kidneys and liver (FIG. 28). At study endpoint (Day 28 post-injection), plasma, tumors, kidneys, lungs, hearts, livers, and muscles from 9.25 MBq and 14.8 MBq treatment groups were collected for evaluation of radioactivity by gamma counting (FIG. 29).

OVCAR3 xenograft [4] = assay: 177Lu FOLR1 radioligand therapy of OVCAR3 xenografts; assay type: in vivo, mouse; details: for tumor response: single dose at 18.5 MBq/nmol, tumor size (avg.) 148 mm^3
Description: Water and food were provided ad libitum. […] Tumor growth was monitored by caliper measurements.
OVCAR3 tumor bearing mice were used to study FOLR1-directed radioligand therapy (RLT) for treatment of ovarian cancer. Animals were administered a single dose of heterobiligand (vehicle control) or 111, 37, 18.5, 9.25, or 3.7 MBq [^177Lu]DOTA-labeled heterobiligand. Mice received the dose intravenously (i.v.) via the tail vein. To monitor the effect of the RLT, tumor size measurements were taken twice weekly and body weights were measured.
Single dose treatments at 18.5 MBq/nmol specific activity. OVCAR3 mouse model was used. 10^7 cell tumors were implanted in the mice one month before administration of ^177Lu-#6305. Five mice each were administered Cold #6305, 9.25 MBq Lu177-#6305, and 14.8 MBq Lu177-#6305, and two mice were administered 29.6 MBq Lu177-#6305. Tumor growth and body weight were then monitored.
Female NSG mice were implanted subcutaneously with OVCAR3 cells. Once tumors reached volumes of 200 mm^3, the animals were treated with 177-Lu 7327. Three treatment arms of 9.25 MBq, 14.8 MBq, and 29.6 MBq were studied.

[5] = Plasma protein binding, human plasma; assay type: in vitro ADME; details: for recovery / fraction unbound: human plasma; for fraction unbound: read-out: Plasma % Bound, Hu (converted)
Description: (§1) HTD 96 a/b regenerated cellulose membrane strips with mass cutoff of 12-14 kDa were soaked in ultra-pure water at room temperature for 1 hour. Each swelled membrane was then soaked in 20:80 ethanol:water for 20 minutes.
(§2) Just prior to the experiment, the membranes were re-soaked in ultra-pure water. Plasma was prepared by thawing under cold water. The plasma was centrifuged to remove any clots and pH was adjusted to 7.0-8.0. Test articles and control compounds were diluted to 2 μM. The dialysis device was loaded by transferring 150 μL of the test article (in triplicate) to the donor side. The dialysis device was placed in a humidified incubator at 37° C. with 5% CO2 in a shaking platform that rotated slowly for 4 hours. After incubation, 50 μL of the supernatant was taken from both sides and analyzed by LC-MS/MS.

[6] = Plasma protein binding, CD-1 mouse plasma; assay type: in vitro ADME; details: for fraction unbound / recovery: CD-1 mouse plasma; for fraction unbound: read-out: Plasma % Bound, Mu (converted)
Description: as §1, §2

human recombinant NEP = human recombinant NEP (Homo sapiens, UniProt P08473); assay: NEP enzymatic cleavage assay (MALDI, HPLC); assay type: biochemical
Description: In order to test the susceptibility of GFK and MVK linkers to NEP-mediated cleavage, the peptide (Folate-hshta-Lys(MPBA)-Gly-Phe-Lys(DOTA) (SEQ ID NO:6)) was incubated with human recombinant NEP and analyzed the solution for the presence of cleaved adducts. MALDI was utilized to monitor the cleavage of a PCC heterobiligand that contains a NEP protease recognizable sequence (G-F-K). The PCC concentration was constant and the NEP concentration was titrated down from 10 nM to 1 nM, 0.1 nM, 0.01 nM, and no NEP. The NEP-mediated cleaved adduct was identified by mass. 10 μM PCC containing the GFK linker was combined with varying amounts of NEP. […] Below 0.1 nM no cleavage was observed. • Folate-hshta-Lys(MPBA)-Gly-Phe-Lys(DOTA) (SEQ ID NO:6) • Molecular weight 2231.42
The NEP-mediated cleavage was also monitored by HPLC. In agreement with the MALDI spectra, the HPLC chromatograms show depletion of the parent brush-border heterobiligand (retention time 17.1 minutes), dose-dependent on the amount of NEP spiked into the sample (10 nM, 1 nM, 0.1 nM, 0.01 nM, and no NEP). An appearance of a new peak (retention time 16.5 minutes) in concert with the depletion of the starting material is presumed to be the cleaved folate-containing peptide.
In order to test the specificity of NEP, a non-cleavable linker (PEG3) was also assayed.
To reduce the radioactive dose to the kidney, Indi ^177Lu-7327 was constructed to incorporate a GFK linker that is susceptible to cleavage by enzymes found predominately in the kidney's brush border. These enzymes cleave off the radionuclide-chelator complex, which is quickly eliminated by the kidney for excretion in the urine. The zinc metalloprotease neprilysin (NEP) is expressed with high abundance in the kidney. […] To confirm NEP-mediated cleavage of the GFK linker in Indi 7327, the peptide was incubated with recombinant human NEP at 37° C. for 1 h and analyzed by matrix-assisted laser desorption/ionization mass spectrometry (MALDI-MS) for the evolution of cleaved adducts (FIG. 42). […] The expected cleaved adduct (mass: 1283.16 m/z) appears in the samples containing 10, 1.0, and 0.1 nM NEP. […] Below 0.1 nM NEP, no cleavage was observed. In addition to confirming the selectivity of NEP for the GFK linker, it is also important to note that the remaining portions of the Indi 7327 were impervious to the enzyme.

[7] = tested on: OVCAR3 FOLR1+ cells (PC-3 FOLR1− cells as negative line); assay: Flow cytometry binding to FOLR1 (+) and FOLR1 (−) cell lines; assay type: cell-based, human; details: OVCAR3 vs PC-3, flow cytometry
Description: Both the kyeet (SEQ ID NO:9) and hshta (SEQ ID NO:6)-derived biligands were tested by flow cytometry for binding to FOLR1 (+) and FOLR1 (−) cell lines (FIGS. 6 and 7). The human ovarian adenocarcinoma-derived cell line OVCAR3 has robust FOLR1 expression and was selected as the FOLR1 (+) cell line. The human prostate adenocarcinoma-derived cell line PC-3 was selected as a FOLR1 (−) cell line.

[8] = 29.6 MBq group, Day 7 post-injection
[9] = read-out: Plasma protein binding % Recovery, Hu
[10] = read-out: Plasma protein binding % Recovery, Mu

Sequence of human recombinant NEP (P08473 whole entry): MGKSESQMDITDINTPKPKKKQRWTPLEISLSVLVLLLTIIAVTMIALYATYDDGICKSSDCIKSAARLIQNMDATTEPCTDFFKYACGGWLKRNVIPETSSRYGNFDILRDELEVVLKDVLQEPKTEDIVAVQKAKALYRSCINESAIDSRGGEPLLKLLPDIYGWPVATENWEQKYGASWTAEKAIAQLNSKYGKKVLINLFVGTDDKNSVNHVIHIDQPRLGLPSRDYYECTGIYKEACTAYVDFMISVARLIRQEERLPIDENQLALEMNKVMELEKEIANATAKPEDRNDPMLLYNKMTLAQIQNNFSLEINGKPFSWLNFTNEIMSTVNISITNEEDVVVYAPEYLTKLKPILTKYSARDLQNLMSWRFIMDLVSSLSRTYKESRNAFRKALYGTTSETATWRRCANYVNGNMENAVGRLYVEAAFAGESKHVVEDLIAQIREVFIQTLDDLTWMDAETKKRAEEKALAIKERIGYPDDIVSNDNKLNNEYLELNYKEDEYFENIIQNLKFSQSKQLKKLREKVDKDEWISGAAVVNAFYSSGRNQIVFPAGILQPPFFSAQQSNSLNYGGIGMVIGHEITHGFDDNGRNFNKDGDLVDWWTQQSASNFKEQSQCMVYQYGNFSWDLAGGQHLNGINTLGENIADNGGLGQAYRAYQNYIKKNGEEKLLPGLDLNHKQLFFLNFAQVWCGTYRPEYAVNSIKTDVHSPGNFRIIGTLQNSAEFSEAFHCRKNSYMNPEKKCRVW

With `Cc1ccc(CCCC(=O)NCCCC[C@H](NC(=O)[C@@H]2CCCCn3cc(nn3)C[C@H](NC(=O)CC[C@H](NC(=O)c3ccc(NCc4cnc5nc(N)[nH]c(=O)c5n4)cc3)C(=O)O)C(=O)N[C@H](Cc3c[nH]cn3)C(=O)N[C@H](CO)C(=O)N[C@H](Cc3c[nH]cn3)C(=O)N[C@H]([C@H](C)O)C(=O)N[C@H](C)C(=O)N2)C(=O)NCC(=O)N[C@@H](Cc2ccccc2)C(=O)N[C@@H](CCCCNC(=O)CN2CCN(CC(=O)O)CCN(CC(=O)O)CCN(CC(=O)O)CC2)C(=O)O)cc1` (177Lu complex, metal not drawn) [Lu177-#6305] ({Pteroyl-γGlu}-[Pra][dH][dS][dH][dT][dA][Lys(N3)]K(Butanoyl(4-(4-MePh)))GFK(DOTA)-OH; triazole 1-7) the “tolerability of second dose” value ([1]; 14.8-22.2 MBq, second dose administered 21 days) was “not tolerated”, the “tolerability of second dose” value ([1]; 29.6-185 MBq, second dose 7 days after the first) was “not tolerated” and the body weight ([1]; 29.6 MBq, 37 MBq, 111 MBq, and 185 MBq, first dose) was “began to experience weight loss after the first dose”. For the same molecule, the body weight ([1]; single dose of 14.8 MBq, 18.5 MBq, and 22.2 MBq) was “only minimal loss in body weight that quickly stabilized”, the OVCAR3 tumor growth (OVCAR3 xenograft [2]; 14.8 MBq) was “significantly slowed down OVCAR3 tumor growth” and the body weight change (OVCAR3 xenograft [2]; 29.6 MBq) was “substantial body weight decrease”. The kidney radioactivity ([3]; 9.25 MBq group) was 414 CPM/g, the liver radioactivity ([3]; 9.25 MBq group) was 685 CPM/g and the tumor radioactivity ([3]; 9.25 MBq group) was 33 CPM/g. For the same molecule, the liver/kidney ratio ([3]; 14.8 MBq group on Day 28) was 1.94, the kidney radioactivity ([3]; 14.8 MBq group) was 653 CPM/g and the liver radioactivity ([3]; 14.8 MBq group) was 1,264 CPM/g. For the same molecule, the tumor radioactivity ([3]; 14.8 MBq group) was 60 CPM/g, the liver/kidney ratio ([3]; 29.6 MBq group on Day 7) was 0.27 and the “radioactivity in the kidney” value [3, 8] was 394,834 CPM/g. The “radioactivity in the liver” value [3, 8] was 107,374 CPM/g, the “radioactivity in the tumor” value [3, 8] was 42,674 CPM/g and the body weight change (OVCAR3 xenograft [4]; 9.25 MBq and 14.8 MBq, single dose) was “No significant body weight change”. For the same molecule, the tumor response (OVCAR3 xenograft [4]; 9.25 MBq) was “nonresponse”, the tumor response (OVCAR3 xenograft [4]; 14.8 MBq) was “partial response” and the body weight lost (OVCAR3 xenograft [4]; 29.6 MBq group, 7 days after injection) was 20%.
Molecule `Cc1ccc(CCCC(=O)NCCCC[C@H](NC(=O)[C@@H]2CCCCn3cc(nn3)C[C@H](NC(=O)CC[C@H](NC(=O)c3ccc(NCc4cnc5nc(N)[nH]c(=O)c5n4)cc3)C(=O)O)C(=O)N[C@H](Cc3c[nH]cn3)C(=O)N[C@H](CO)C(=O)N[C@H](Cc3c[nH]cn3)C(=O)N[C@H]([C@H](C)O)C(=O)N[C@H](C)C(=O)N2)C(=O)NCC(=O)N[C@@H](Cc2ccccc2)C(=O)N[C@@H](CCCCNC(=O)COCCOCCOCCNC(=O)CN2CCN(CC(=O)O)CCN(CC(=O)O)CCN(CC(=O)O)CC2)C(=O)O)cc1` [compound 3302, Fol-hshta-Lys(4-MPBA)-Gly-Phe-Lys(PEG3-DOTA)] ({Pteroyl-γGlu}-[Pra][dH][dS][dH][dT][dA][Lys(N3)]K(Butanoyl(4-(4-MePh)))GFK([AEEEA-DOTA])-OH; triazole 1-7) has a recovery [5, 9] of 88.1%, a fraction unbound ([5]; human, plasma) of 0.051 and a fraction unbound [6] of 0.035. For the same molecule, the recovery [6, 10] was 103% and the “in vitro Assay Data (NEP assay)” value (human recombinant NEP; Table 2) was “Cleavage of -G-F-K-”.
`C[C@H](O)[C@H]1NC(=O)[C@@H](Cc2cnc[nH]2)NC(=O)[C@@H](CO)NC(=O)[C@@H](Cc2cnc[nH]2)NC(=O)[C@@H](NC(=O)CC[C@H](NC(=O)c2ccc(NCc3cnc4nc(N)[nH]c(=O)c4n3)cc2)C(=O)O)Cc2cn(nn2)CCCC[C@@H](C(=O)NCC(=O)N[C@@H](Cc2ccccc2)C(=O)N[C@@H](CCCCNC(=O)CON)C(=O)O)NC(=O)[C@@H](C)NC1=O` [compound 3303, Fol-hshta-Gly-Phe-Lys(AO)] ({Pteroyl-γGlu}-[Pra][dH][dS][dH][dT][dA][Lys(N3)]GFK(X1)-OH; triazole 1-7) gave a fraction unbound at 4 h, 2 μM ([5]; human, plasma, AO-containing constructs, (FB), read-out: Plasma % Bound, Hu) of 0.19, a recovery at 4 h, 2 μM ([5]; human, plasma, AO-containing constructs, (FB), read-out: Plasma protein binding % Recovery, Hu) of 80.6% and a fraction unbound at 4 h, 2 μM ([6]; CD-1, mouse, plasma, AO-containing constructs, (FB), read-out: Plasma % Bound, Mu) of 0.245. For the same molecule, the recovery at 4 h, 2 μM ([6]; CD-1, mouse, plasma, AO-containing constructs, (FB), read-out: Plasma protein binding % Recovery, Mu) was 77.7% and the “in vitro Assay Data (NEP assay)” value (human recombinant NEP; Table 7, AO-containing constructs) was “Cleavage of —G—F—K-”.
For `C[C@H](O)[C@H]1NC(=O)[C@@H](Cc2c[nH]cn2)NC(=O)[C@@H](CO)NC(=O)[C@@H](Cc2c[nH]cn2)NC(=O)[C@@H](NC(=O)CC[C@H](NC(=O)c2ccc(NCc3cnc4nc(N)[nH]c(=O)c4n3)cc2)C(=O)O)Cc2cn(nn2)CCCC[C@@H](C(=O)NCCOCCOCCOCC(=O)NCC(=O)N[C@@H](Cc2ccccc2)C(=O)N[C@@H](CCCCNC(=O)CN2CCN(CC(=O)O)CCN(CC(=O)O)CCN(CC(=O)O)CC2)C(=O)O)NC(=O)[C@@H](C)NC1=O` [compound 6307, Fol-hshta-PEG3-Gly-Phe-Lys(DOTA)] ({Pteroyl-γGlu}-[Pra][dH][dS][dH][dT][dA][Lys(N3)][AEEEA]GFK(DOTA)-OH; triazole 1-7), the recovery [5, 9] was 81.6%, the fraction unbound ([5]; human, plasma) was 0.587 and the fraction unbound [6] was 0.594. For the same molecule, the recovery [6, 10] was 68.9% and the “in vitro Assay Data (NEP assay)” value (human recombinant NEP; Table 2) was “Cleavage of -G-F-K-”.
With `C[C@H](O)[C@H]1NC(=O)[C@@H](CCC(=O)O)NC(=O)[C@@H](CCC(=O)O)NC(=O)[C@@H](Cc2ccc(O)cc2)NC(=O)[C@@H](CCCCN)NC(=O)[C@@H](NC(=O)COCCOCCOCCNC(=O)CCCC[C@@H]2SC[C@@H]3NC(=O)N[C@@H]32)Cc2cn(nn2)CCCC[C@@H](C(N)=O)NC1=O` [kyeet] ({Biotin-AEEEA}-[Pra][dK][dY][dE][dE][dT][Lys(N3)]-NH2; triazole 1-7) the “binding selectivity for FOLR1 (+) cells over FOLR1 (−) cells” value [7] was “slight binding selectivity”.

Reference: US11766414B2, “Compositions, delivery systems, and methods useful in tumor therapy” (Indi Molecular, Inc., priority 2020, dated 2023)
